Experimental data from the DeepSol protein solubility set.

test: soluble on expression in E. coli; label from the status in PepcDB or PDB records

Sequence	soluble on expression in E. coli
MNYKSPVYNVTPIHYTKLQANNYNPNTVPATELKLLEKSIWEDGFTQPIVCYPLENSDKYEIIDGFHRYTIMQTSKRIREREKELLPVVILEKDTVNRIASTIRHNRARGFHNVELMSSIVGELADSGMSDSWIMKNIGMDANEILRLKQVSGLTHLFLDKEFSKASD	not soluble
MSGELKDRLVARALEEGFVSCRVCRPWDVPEMPARLGAFVEAGYHGQMGWMAERMEWRGDPAALWPEARSVIMLAESYAPDTDPMEVVGQPDRGAISVYARGKDYHDLVKKRLKRLARWLIEAGGGEVKVFVDTAPVPEKALGQAAGLGWQGKHTNLVSRDWGNWAFLGSVFTTLDLPSDPVGRDNCGSCSACLTACPTDAFPAPYRLDARRCISYLTIEHKGPVDEELRAKLGNRIYGCDDCLAACPWNKFAVAASDLRYGARPELSAPALADLARLDDAGFREMFSGSPIKRIGRDRFVRNVLYAIGNSGLPALRPVAQDLAQDSDPTVADAARWAAAKLAMSR	not soluble
MYLKARQDELTESTIQSQEYRLEAFEQFCREEGIENLNDLSGRDLYAYRVWRREGNGKGRDEIEPITLRGQLATVRSFLRFAAEVDAVPEDLRTKVPLPTILEHHHHHH	not soluble
MGSDKIHHHHHHLSITKPHTTVLLTGATGNWGRATLRELSSRSDRVTVLVLSLPGEKDKAVLSEFSAMENLDVVWGDLTDYATVATCVARADVVLHVGAVVSPLADEQPELATRVNVGSMRNIIRAVKAQPDPSRIRVVGVGSVAQTGNRNPPLHWGRVGDPIRVSRFDAYGQSKVTAERELVEAGLPTWVWLRQTGIFHPGMLEIRDPIMTHSPFAGVMEWVSAQDSARLLANLCEPDVPGELWGGVYNIGGGEGWRLSNWQLQTAIGQAVGVKDIRKWYDRNWFALKNFHGQWYTDSDRLHALVPFRQDTFESALARALATAPSSVRNAGKVPAWIVKHLVMKPLSRKPRGTMAAIRSGTDQEVSAHFGSLPEWRSIGDWSTFEPPAPSRTPSYLDHGYDENKPASEWSAIDYLEAAAFRGGRLLTEDVNPGLPSAPLMWSCGAGHEFAASPRLVLQAGHWCPACTADPAGYDRQAEHNKFLAQVIDA	not soluble
SKDCIIQRYKDGDVNNIYTANRNEEITIEEYKVFVNEACHPYPVILPDRSVLSGDFTSAYADDDESC	soluble
MVILMRAPIVEVFSSIQGEGLLVGRRQIFVRFAGCNLNCSYCDTPESRDPSAGRLFTAPELTEIIEGLITPDFHSISITGGEPLLYPDFITELLEESPHRTLLETNGSLPSNAERIAHLFDYASVDIKIAEHFSDNLRSGTTESDISSPGDLIDREIQVINILISRGVNTYCKVVVMPTTGAGYIGALAERLLECVDEPERLPLVIQPCSPPEQWAQNTPRLLEMSQEAGKYMDVYVIPQMHRALGLR	soluble
GMTFEPYPFERLRALLKEITPKKRGLDLGIGEPQFETPKFIQDALKNHTHSLNIYPKSAFEESLRAAQRGFFKRRFKIELKENELISTLGSREVLFNFPSFVLFDYQNPTIAYPNPFYQIYEGAAKFIKAKSLLMPLTKENDFTPSLNEKELQEVDLVILNSPNNPTGRTLSLEELISWVKLALKHDFILINDECYSEIYENTPPPSLLEACMLAGNEAFKNVLVIHSLSKRSSAPGLRSGFIAGDSRLLEKYKAFRAYLGYTSANAIQKASEAAWLDDRHAEFFRNIYANNLKLARKIFKNTLIYPYSFYVYLPVQNGENFAKTLYQNEGIITLPALYLGRNRIGADYVRLALVYDTPLLEKPLEIIETYRENHA	soluble
MQNGYTYEDYQDTAKWLLSHTEQRPQVAVICGSGLGGLVNKLTQAQTFDYSEIPNFPESTVPGHAGRLVFGILNGRACVMMQGRFHMYEGYPFWKVTFPVRVFRLLGVETLVVTNAAGGLNPNFEVGDIMLIRDHINLPGFSGENPLRGPNEERFGVRFPAMSDAYDRDMRQKAHSTWKQMGEQRELQEGTYVMLGGPNFETVAECRLLRNLGADAVGMSTVPEVIVARHCGLRVFGFSLITNKVIMDYESQGKANHEEVLEAGKQAAQKLEQFVSLLMASIPV	soluble
MAAACICQPNLLEINVSDGPLDMIRKKRKIQQPQLRPPLRENKCQPHFSVRKVNQSYIISLHKEITCQLIAEIVKQKLSRIWEKVYIPSYELISDKDGNQIYVEQSVDENRLTSEIMEKLDPNNIDIEAIEILFDDYHLELSRLTNGIIISSANDHFYREFSFNNIIDDNFKICGTSMSADSFDKIYGVMWIEVPFNGNGLQNDSAVNRVSTSHNQIEELNDIEQEIRAFNISRSNQESIIKKEVSRRLNGR	not soluble
